Reference: patent US20170355774A1 (Regeneron, published 2017)

T1: human GITR (amino acids M1-V241, NCBI Accession #NP_004186.1) expressed on cells (human, UniProt Q9Y5U5 26-241)
T1 sequence: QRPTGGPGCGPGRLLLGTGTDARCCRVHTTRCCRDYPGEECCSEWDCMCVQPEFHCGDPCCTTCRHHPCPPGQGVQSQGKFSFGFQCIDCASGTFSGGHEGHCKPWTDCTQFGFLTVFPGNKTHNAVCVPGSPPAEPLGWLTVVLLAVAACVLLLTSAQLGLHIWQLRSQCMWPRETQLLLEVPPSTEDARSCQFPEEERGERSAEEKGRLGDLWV

T2: hGITR.mmh (human)
T2 construct: soluble monomeric construct; also called human (h) GITR.mmh; monomeric human GITR
T2 chain: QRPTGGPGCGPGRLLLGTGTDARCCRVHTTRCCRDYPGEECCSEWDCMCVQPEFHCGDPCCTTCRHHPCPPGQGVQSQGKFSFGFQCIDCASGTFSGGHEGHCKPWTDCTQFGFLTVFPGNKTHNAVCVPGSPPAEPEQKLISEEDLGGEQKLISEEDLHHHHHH

T3: mfGITR.mmh (Macaca fasicularis)
T3 construct: soluble monomeric construct; also called Macaca fasicularis (mf) GITR.mmh; cynomolgus GITR protein
T3 chain: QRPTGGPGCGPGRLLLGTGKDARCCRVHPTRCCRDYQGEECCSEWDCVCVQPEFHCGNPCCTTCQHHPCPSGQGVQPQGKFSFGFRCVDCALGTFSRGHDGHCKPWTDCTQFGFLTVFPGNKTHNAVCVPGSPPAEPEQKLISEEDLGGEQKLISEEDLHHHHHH

T4: hGITR.mFc (human)
T4 construct: soluble dimeric construct with mouse Fc; also called dimeric human GITR
T4 chain: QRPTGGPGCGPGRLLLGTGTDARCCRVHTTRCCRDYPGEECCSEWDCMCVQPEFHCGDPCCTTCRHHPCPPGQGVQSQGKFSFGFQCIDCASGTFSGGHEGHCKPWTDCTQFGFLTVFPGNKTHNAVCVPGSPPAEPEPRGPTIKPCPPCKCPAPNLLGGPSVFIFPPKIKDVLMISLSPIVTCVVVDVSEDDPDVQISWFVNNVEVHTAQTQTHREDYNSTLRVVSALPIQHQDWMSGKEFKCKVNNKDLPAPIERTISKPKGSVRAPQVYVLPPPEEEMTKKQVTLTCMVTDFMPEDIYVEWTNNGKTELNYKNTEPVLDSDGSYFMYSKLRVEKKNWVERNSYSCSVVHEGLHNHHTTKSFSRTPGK

B1: H4H14476P (antibody, human IgG4, V domains shown)
VH: QVQLVESGGGVVQPGRSLRLSCAASGFTFSNYGIHWVRQPPGQGLEWVAVIWYAGSNKFYADSVKGRFTISRDNSKNSAYLQMNSLRAEDTAVYYCARAPLGYYYYGMDVWGQGTTVTVSS
VL: DIQMTQSPSSLSASVGDRVTITCRASQGIRNDLGWYQQKPGKAPKRLIYDASSLESGVPSRFSGSGSGTEFTLTISSLQPEDFATYYCLQHNSYPWTFGQGTKVEIK
notes: human IgG4 (H4H)
B2: H1H14493P (antibody, human IgG1, V domains shown)
VH: QVQLVESGGGVVQPGRSLRLSCAASGFNFRSYGMHWVRQAPGKGLEWVAVIWYDGSNKYYADSVKGRFTISRDSSRDTLFLQMNSLRAGDTAVYYCARGGMLGRDYYYGMDVWGQGTTVTVSS
VL: DIQMTQSPSSLSASVGDRVTITCRASQGIRNDLGWYQQKPGKAPKRLIYAASSLQSGVPSRFSGSGSGTEFTLTISSLQPEDFATYYCLQHNSYPNTFGQGTKLEIK
notes: human IgG1 (H1H)
B3: H1H14486P (antibody, human IgG1, V domains shown)
VH: QVQLVESGGGVVQPGRSLRLSCAASGFTFSNYGMHWVRQAPGKGLEWVAVIWYPGSNKFYTDSVEGRFTISRDNSKNTVYLQMDSLRAEDTAVYYCARGGALGVDYYYGMDVWGQGTTVTVSS
VL: AIQMTQSPSSLSASVGDRVTLTCRASQGIRNDLGWYQQKPGKAPNFLIYSASSLQSGVPSRFSGSGSGTDFTLTISSLQPEDFATYYCLQNYNYPWTFGQGTKVEIK
notes: human IgG1 (H1H)
B4: H1H14520P (antibody, human IgG1, V domains shown)
VH: QVQLVESGGGVVQPGRSLRLSCAASGFTFSSFGMHWVRQAPGKGLEWVAVISYDGRNRYYADSVKGRFTISRDNSKNTLYLQMNSLSAEDTAMFYCAKDGFGNSFDYWGQGTLVTVSS
VL: DVVMTQSPLSLPVTLGQPASISCRSSQSLLYSDGNTYLTWFQQRPGQSPRRLIYKVSNRDSGVPDRFSGSGSGTDFTLTISRVEAEDVGIYYCMQGTHWPWTFGQGTKVEIK
notes: human IgG1 (H1H)
B5: H4H14521P (antibody, human IgG4, V domains shown)
VH: EVQLVESGGGLVQPGGSLRLSCAASGFTFRVYEMNWVRQAPGKGLEWISYIGSSGFTIYYADSVKGRFTISRDNAKNSLFLQLNSLRAEDTAVYYCARGWNDGVPNYLGMDVWGQGTTVTVSS
VL: DIQMTQSPSSLSASVGDRVTITCQASQDINKYLNWYQQKPGKAPKLLIYDASNLETGVPSRFSGSGSGTDFTFTISSLQPEDIARYHCQQYDKIPLTFGGGTKVEIK
notes: human IgG4 (H4H)

Experiments:
[1] = target: T1, human GITR (amino acids M1-V241, NCBI …); experiment: cell-based or functional assay
[2] = target: T1, human GITR (amino acids M1-V241, NCBI …); experiment: cell-based or functional assay; remark: listed apart in the source
[3] = target: T1, human GITR (amino acids M1-V241, NCBI …); experiment: ECL cell binding, hGITR/HEK293-D9
Procedure: Nonspecific binding sites were blocked with 2% BSA (w/v)+PBS for 1 h at room temperature (RT). Next, serial dilutions of anti-GITR antibodies, ranging from 1.7 pM to 100 nM, were added to cells for 1 h at RT. Plates were then washed to remove unbound antibodies (AquaMax2000 plate washer, MSD Analytical Technologies) and plate-bound antibodies were detected with a SULFO-TAG™ conjugated anti-human kappa light chain IgG antibody (Jackson Immunoresearch) for 1 h at RT.
Following washes, luminescent signals were recorded with a SECTOR Imager 6000 (MSD) instrument. Direct binding signals (relative light units, RLU) were analyzed as a function of the antibody concentration and data were fitted with a sigmoidal (four-parameter logistic) dose-response model using GraphPad Prism™ software. […] The signal detected with 100 nM antibody binding to the hGITR expressing cells versus parental cells was recorded as an indication of intensity and specificity of GITR binding.

[4] = target: T1, human GITR (amino acids M1-V241, NCBI …); experiment: cell-based or functional assay; remark: listed apart in the source
[5] = target: T2, hGITR.mmh; experiment: SPR 37C, mAb capture
Procedure: (§1) (Table 3). […] GITR proteins were injected over the sensor surface at a flow rate of 30 μL/minute. All Biacore binding studies were performed in a buffer composed of 0.01M HEPES pH 7.4, 0.15M NaCl, 3 mM EDTA, 0.05% v/v Surfactant P20 (HBS-ET running buffer). Antibody-reagent association was monitored for 4 minutes while dissociation in HBS-ET running buffer (10 mM HEPES, 150 mM NaCl, 3 mM EDTA, 0.05% (v/v) Surfactant P20, pH 7.4) was monitored for 10 minutes. Kinetic association (kₐ) and dissociation (kd) rate constants were determined by fitting the real-time sensorgrams to a 1:1 binding model using Scrubber 2.0c curve fitting software. Binding dissociation equilibrium constants (KD) and dissociative half-lives (t ½) were calculated from the kinetic rate constants as: KD [M]=kd/kₐ; and t_{1/2}(min)=(ln 2/(60*kd). Results are summarized in Table 3.

[6] = target: T3, mfGITR.mmh; experiment: SPR 37C, mAb capture
Procedure: as §1

[7] = target: T4, hGITR.mFc; experiment: SPR 37C, mAb capture
Procedure: as §1

[8] = target: T1, human GITR (amino acids M1-V241, NCBI …); experiment: cell-based or functional assay; remark: listed apart in the source

Binder | fold activation, T-cell proliferation, 22 nM, non-anchored, donor 1 [1] [fold] | fold activation, T-cell proliferation, 22 nM, non-anchored, donor 2 [1] [fold] | % Activation, NF-kB-Luc, non-anchored [2] [%] | % Blocking, NF-kB-Luc, non-anchored [2] [%] | EC50, hGITR activation, NF-kB-Luc, non-anchored [2] [nM] | IC50, blocking of hGITRL stimulation, NF-kB-Luc, non-anchored [2] [nM] | Average Signal (RLU) at 100 nM [3] [RLU] | EC50 [3] [nM] | Kd [5] [nM] | koff [5] [s⁻¹] | kon [5] [M⁻¹ s⁻¹] | t½ [5] [min] | Kd [6] [nM] | koff [6] [s⁻¹] | kon [6] [M⁻¹ s⁻¹] | t½ [6] [min] | Kd [7] [nM] | koff [7] [s⁻¹] | kon [7] [M⁻¹ s⁻¹] | t½ [7] [min] | other results
B1 | 0.7 | 0.9 | 10 | 90 | 1 | 2.6 | 8120 | 0.57 | 31.4 | 0.0123 | 392000 | 0.9 | 55.8 | 0.0107 | 191000 | 1.1 | 0.297 | 0.000269 | 906000 | 42.9 | fold activation, T-cell proliferation, 22 nM, non-anchored, donor 3 [1]: 0.9 fold; fold activation, T-cell proliferation, 22 nM, non-anchored, donor 4 [1]: 0.8 fold; fold activation, T-cell proliferation, 22 nM, non-anchored, mean [1]: 0.8 fold; fold activation, T-cell proliferation, 33 nM, FcgR anchored, donor 1 [4]: 0.6 fold; fold activation, T-cell proliferation, 33 nM, FcgR anchored, donor 2 [4]: 0.2 fold; fold activation, T-cell proliferation, 33 nM, FcgR anchored, donor 3 [4]: 0.8 fold; fold activation, T-cell proliferation, 33 nM, FcgR anchored, donor 4 [4]: 0.8 fold; fold activation, T-cell proliferation, 33 nM, FcgR anchored, donor 5 [4]: 0.1 fold; fold activation, T-cell proliferation, 33 nM, FcgR anchored, mean [4]: 0.5 fold
B2 | – | – | 25 | 90 | 1.2 | 0.6 | 7220 | 0.3 | 13.4 | 0.0025 | 186000 | 4.6 | 1400 | 0.014 | 10000 | 0.8 | 0.365 | 0.000191 | 524000 | 60.4 | –
B3 | – | – | 30 | 50 | 1.2 | 1.1 | 5830 | 0.43 | 2.79 | 0.00123 | 439000 | 9.4 | 122 | 0.0166 | 137000 | 0.7 | 0.159 | 0.000153 | 965000 | 75.5 | –
B4 | – | – | 10 | 80 | 1.1 | 0.9 | 6450 | 0.24 | 63 | 0.0167 | 266000 | 0.7 | 85.9 | 0.0171 | 199000 | 0.7 | 0.537 | 0.000583 | 1.09e+06 | 19.8 | –
B5 | 0.5 | 1.2 | 50 | 60 | 0.4 | 3.8 | 10100 | 0.43 | 22.7 | 0.00784 | 345000 | 1.5 | 20.1 | 0.00334 | 166000 | 3.5 | 0.389 | 0.000479 | 1.23e+06 | 24.1 | fold activation, T-cell proliferation, plate-bound Ab 10.6 nM, donor 1 [8]: 1 fold; fold activation, T-cell proliferation, plate-bound Ab 10.6 nM, donor 2 [8]: 4 fold; fold activation, T-cell proliferation, plate-bound Ab 10.6 nM, donor 3 [8]: 4 fold; fold activation, T-cell proliferation, plate-bound Ab 10.6 nM, donor 4 [8]: 5 fold; fold activation, T-cell proliferation, plate-bound Ab 10.6 nM, donor 5 [8]: 4 fold; fold activation, T-cell proliferation, plate-bound Ab 10.6 nM, donor 6 [8]: 12 fold; fold activation, T-cell proliferation, plate-bound Ab 10.6 nM, donor 7 [8]: 3 fold; fold activation, T-cell proliferation, plate-bound Ab 10.6 nM, donor 8 [8]: 2 fold; fold activation, T-cell proliferation, plate-bound Ab 10.6 nM, mean [8]: 4 fold; fold activation, T-cell proliferation, 22 nM, non-anchored, donor 3 [1]: 0.8 fold; fold activation, T-cell proliferation, 22 nM, non-anchored, donor 4 [1]: 1 fold; fold activation, T-cell proliferation, 22 nM, non-anchored, mean [1]: 0.9 fold; fold activation, T-cell proliferation, 33 nM, FcgR anchored, donor 1 [4]: 1.5 fold; fold activation, T-cell proliferation, 33 nM, FcgR anchored, donor 2 [4]: 1.1 fold; fold activation, T-cell proliferation, 33 nM, FcgR anchored, donor 3 [4]: 1.1 fold; fold activation, T-cell proliferation, 33 nM, FcgR anchored, donor 4 [4]: 1.7 fold; fold activation, T-cell proliferation, 33 nM, FcgR anchored, donor 5 [4]: 0.9 fold; fold activation, T-cell proliferation, 33 nM, FcgR anchored, mean [4]: 1.2 fold
